Measurements from the supplement of paper PMC11246515.
± gives the standard deviation of the averaged measurements.

Experiment: total protein half-life in vivo (active degradation + dilution); higher = more stable protein
[1] = E. coli NCM3722 delta-clpP delta-lon delta-hslV, growth: N-lim chemostat, doubling time 6 h
[2] = E. coli NCM3722 delta-clpP, growth: N-lim chemostat, doubling time 6 h
[3] = E. coli NCM3722 delta-lon, growth: N-lim chemostat, doubling time 6 h
[4] = wild type E. coli NCM3722, growth: C-lim chemostat, doubling time 6 h
[5] = wild type E. coli NCM3722, growth: C-lim chemostat, doubling time 12 h
[6] = wild type E. coli NCM3722, growth: N-lim chemostat, doubling time 6 h
[7] = wild type E. coli NCM3722, growth: N-lim chemostat, doubling time 12 h
[8] = wild type E. coli NCM3722, growth: P-lim chemostat, doubling time 6 h
[9] = wild type E. coli NCM3722, growth: P-lim chemostat, doubling time 12 h
[10] = E. coli NCM3722 delta-hslV, growth: N-lim chemostat, doubling time 6 h
[11] = E. coli NCM3722 delta-smpB, growth: N-lim chemostat, doubling time 6 h
[12] = wild type E. coli NCM3722, growth: C-lim chemostat, doubling time 3 h

Sequence | total protein half-life in vivo [1] [h] | total protein half-life in vivo [2] [h] | total protein half-life in vivo [3] [h] | total protein half-life in vivo [4] [h] | total protein half-life in vivo [5] [h] | total protein half-life in vivo [6] [h] | total protein half-life in vivo [7] [h] | total protein half-life in vivo [8] [h] | total protein half-life in vivo [9] [h] | total protein half-life in vivo [10] [h] | total protein half-life in vivo [11] [h] | total protein half-life in vivo [12] [h]
MRWILFILFCLLGAPAHAVSIPGVTTTTTTDSTTEPAPEPDIEQKKAAYGALADVLDNDTSRKELIDQLRTVAATPPAEPVPKIVPPTLVEEQTVLQKVTEVSRHYGEALSARFGQLYRNITGSPHKPFNPQTFSNALTHFSMLAVLVFGFYWLIRLCALPLYRKMGQWARQKNRERSNWLQLPAMIIGAFIIDLLLLALTLFVGQVLSDNLNAGSRTIAFQQSLFLNAFALIEFFKAVLRLIFCPNVAELRPFTIQDESARYWSRRLSWLSSLIGYGLIVAVPIISNQVNVQIGALANVIIMLCMTVWALYLIFRNKKEITQHLLNFAEHSLAFFSLFIRAFALVWHWLASAYFIVLFFFSLFDPGNSLKFMMGATVRSLAIIGIAAFVSGMFSRWLAKTITLSPHTQRNYPELQKRLNGWLSAALKTARILTVCVAVMLLLSAWGLFDFWNWLQNGAGQKTVDILIRIALILFFSAVGWTVLASLIENRLASDIHGRPLPSARTRTLLTLFRNALAVIISTITIMIVLSEIGVNIAPLLAGAGALGLAISFGSQTLVKDIITGVFIQFENGMNTGDLVTIGPLTGTVERMSIRSVGVRQDTGAYHIIPWSSITTFANFVRGIGSVVANYDVDRHEDADKANQALKDAVAELMENEEIRGLIIGEPNFAGIVGLSNTAFTLRVSFTTLPLKQWTVRFALDSQVKKHFDLAGVRAPVQTYQVLPAPGATPAEPLPPGEPTL | 4.93 ± 1 | 6.1 ± 0.28 | 5.15 ± 0.43 | 2.55 ± 2 | 6.41 ± 4.3 | 4.92 | 9.64 ± 0.63 | 6.83 ± 0.65 | 13 ± 1.4 |  |  | 
MTQTLLAIENLSVGFRHQQTVRTVVNDVSLQIEAGETLALVGESGSGKSVTALSILRLLPSPPVEYLSGDIRFHGESLLHASDQTLRGVRGNKIAMIFQEPMVSLNPLHTLEKQLYEVLSLHRGMRREAARGEILNCLDRVGIRQAAKRLTDYPHQLSGGERQRVMIAMALLTRPELLIADEPTTALDVSVQAQILQLLRELQGELNMGMLFITHNLSIVRKLAHRVAVMQNGRCVEQNYAATLFASPTHPYTQKLLNSEPSGDPVPLPEPASTLLDVEQLQVAFPIRKGILKRIVDHNVVVKNISFTLRAGETLGLVGESGSGKSTTGLALLRLINSQGSIIFDGQPLQNLNRRQLLPIRHRIQVVFQDPNSSLNPRLNVLQIIEEGLRVHQPTLSAAQREQQVIAVMHEVGLDPETRHRYPAEFSGGQRQRIAIARALILKPSLIILDEPTSSLDKTVQAQILTLLKSLQQKHQLAYLFISHDLHVVRALCHQVIILRQGEVVEQGPCARVFATPQQEYTRQLLALS |  | 5.76 ± 0.31 | 4.55 ± 0.74 | 5.64 ± 0.14 | 13.1 ± 0.73 | 5.87 ± 0.26 | 11.6 | 6.17 ± 0.13 | 11.9 ± 0.82 | 6.42 ± 0.031 | 5.67 ± 0.15 | 3 ± 0.32
MGAYLIRRLLLVIPTLWAIITINFFIVQIAPGGPVDQAIAAIEFGNAGVLPGAGGEGVRASHAQTGVGNISDSNYRGGRGLDPEVIAEITHRYGFDKPIHERYFKMLWDYIRFDFGDSLFRSASVLTLIKDSLPVSITLGLWSTLIIYLVSIPLGIRKAVYNGSRFDVWSSAFIIIGYAIPAFLFAILLIVFFAGGSYFDLFPLRGLVSANFDSLPWYQKITDYLWHITLPVLATVIGGFAALTMLTKNSFLDEVRKQYVVTARAKGVSEKNILWKHVFRNAMLLVIAGFPATFISMFFTGSLLIEVMFSLNGLGLLGYEATVSRDYPVMFGTLYIFTLIGLLLNIVSDISYTLVDPRIDFEGR [P0AFU0] | 7.09 ± 0.14 | 5.97 | 5.52 ± 0.49 | 5.83 ± 1.1 | 13.9 ± 1.7 | 5.33 | 11.8 ± 1.6 | 6.2 | 12.4 ± 0.79 | 6.39 ± 0.7 | 5.85 ± 0.32 | 3.47 ± 0.61
MKTIEVDDELYSYIASHTKHIGESASDILRRMLKFSAASQPAAPVTKEVRVASPAIVEAKPVKTIKDKVRAMRELLLSDEYAEQKRAVNRFMLLLSTLYSLDAQAFAEATESLHGRTRVYFAADEQTLLKNGNQTKPKHVPGTPYWVITNTNTGRKCSMIEHIMQSMQFPAELIEKVCGTI [P0AFY8] | 6.27 ± 0.64 | 5.709 ± 0.046 | 5.19 ± 0.16 | 4.84 ± 0.89 | 12.7 ± 0.44 | 4.7 ± 0.42 | 8.55 ± 1.1 | 4.71 ± 0.44 | 9.12 ± 0.4 | 5.89 ± 0.072 | 4.27 ± 0.23 | 2.738 ± 0.014
MQTSPLLTQLMEALRCLPGVGPKSAQRMAFTLLQRDRSGGMRLAQALTRAMSEIGHCADCRTFTEQEVCNICSNPRRQENGQICVVESPADIYAIEQTGQFSGRYFVLMGHLSPLDGIGPDDIGLDRLEQRLAEEKITEVILATNPTVEGEATANYIAELCAQYDVEASRIAHGVPVGGELEMVDGTTLSHSLAGRHKIRF [P0A7H6] | 5.56 ± 0.29 | 5.19 ± 0.32 | 4.59 ± 0.36 | 4.09 | 8.57 ± 0.99 | 4.67 | 6.74 ± 0.68 | 4.79 ± 0.23 | 8.59 | 4.36 ± 0.27 | 4.21 ± 0.85 | 2.52 ± 0.099
MHDANIRVAIAGAGGRMGRQLIQAALALEGVQLGAALEREGSSLLGSDAGELAGAGKTGVTVQSSLDAVKDDFDVFIDFTRPEGTLNHLAFCRQHGKGMVIGTTGFDEAGKQAIRDAAADIAIVFAANFSVGVNVMLKLLEKAAKVMGDYTDIEIIEAHHRHKVDAPSGTALAMGEAIAHALDKDLKDCAVYSREGHTGERVPGTIGFATVRAGDIVGEHTAMFADIGERLEITHKASSRMTFANGAVRSALWLSGKESGLFDMRDVLDLNNL | 5.49 ± 0.1 | 4.89 ± 0.007 | 5.38 ± 0.62 | 6.1 ± 0.19 | 12 ± 0.68 | 5.092 ± 0.023 | 9.28 ± 0.75 | 5.71 ± 0.34 | 12.5 ± 1.2 | 5.04 ± 0.21 | 4.76 ± 0.23 | 2.91 ± 0.068
